Source: the supplement of paper PMC5998384

How the values were obtained:
HeLa Kyoto [1] = assay: solubility in G1/S (NP-40 vs SDS abundance) (log2 ratio); higher = more soluble; conditions: cell cycle stage: G1/S
HeLa Kyoto [2] = assay: melting temperature (median over replicates), in situ; higher = more thermally stable
HeLa Kyoto [3] = assay: solubility change mitosis vs G1/S (difference of NP-40 vs SDS log2 ratios) (log2 ratio difference); higher = more soluble in mitosis
HeLa Kyoto [4] = assay: thermal stability score vs G1/S (z-score of summed log2 fold changes over temperatures); higher = more thermally stable than in G1/S
[5] = cell cycle stage: early G1 (4.5 h after nocodazole release)
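For melting temperature (median over replicates), in situ in this document: HeLa Kyoto cells synchronized by double thymidine or nocodazole block, proteins quantified by TMT10plex mass spectrometry, three independent biological replicates.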
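For solubility change mitosis vs G1/S (difference of NP-40 vs SDS log2 ratios) in this document: synchronized HeLa Kyoto cells (double thymidine block for G1/S, nocodazole release for mitosis), protein amounts in NP-40 versus SDS lysates quantified by mass spectrometry, three biological replicates.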
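For solubility in G1/S (NP-40 vs SDS abundance) in this document: HeLa Kyoto cells arrested at G1/S by double thymidine block, proteins quantified by TMT10plex mass spectrometry in mild NP-40 versus SDS extracts, three biological replicates.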
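For thermal stability score vs G1/S (z-score of summed log2 fold changes over temperatures) in this document: synchronized HeLa Kyoto cells, proteins quantified by TMT10plex mass spectrometry, three biological replicates, mitosis taken 0.5 h after nocodazole release, G1/S directly after double thymidine block.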

MRHLPYFCRGQVVRGFGRGSKQLGIPTANFPEQVVDNLPADISTGIYYGWASVGSGDVHKMVVSIGWNPYYKNTKKSMETHIMHTFKEDFYGEILNVAIVGYLRPEKNFDSLESLISAIQGDIEEAKKRLELPEHLKIKEDNFFQVSKSKIMNGH [RFK]
solubility in G1/S (log2) (HeLa Kyoto [1]): 0.518
melting temperature (HeLa Kyoto [2]; cell cycle stage: G1/S): 52.7 °C
melting temperature (HeLa Kyoto [2]; cell cycle stage: mitosis): 54.1 °C
solubility change mitosis (log2) (HeLa Kyoto [3]): -0.114
thermal stability score (HeLa Kyoto [4]; [5]): 0.0986
thermal stability score (HeLa Kyoto [4]; cell cycle stage: mitosis): -0.44

MRKGVLKDPEIADLFYKDDPEELFIGLHEIGHGSFGAVYFATNAHTSEVVAIKKMSYSGKQTHEKWQDILKEVKFLRQLKHPNTIEYKGCYLKEHTAWLVMEYCLGSASDLLEVHKKPLQEVEIAAITHGALHGLAYLHSHALIHRDIKAGNILLTEPGQVKLADFGSASMASPANSFVGTPYWMAPEVILAMDEGQYDGKVDIWSLGITCIELAERKPPLFNMNAMSALYHIAQNDSPTLQSNEWTDSFRRFVDYCLQKIPQERPTSAELLRHDFVRRDRPLRVLIDLIQRTKDAVRELDNLQYRKMKKILFQETRNGPLNESQEDEEDSEHGTSLNREMDSLGSNHSIPSMSVSTGSQSSSVNSMQEVMDESSSELVMMHDDESTINSSSSVVHKKDHVFIRDEAGHGDPRPEPRPTQSVQSQALHYRNRERFATIKSASLVTRQIHEHEQENELREQMSGYKRMRRQHQKQLIALENKLKAEMDEHRLKLQKEVETHANNSSIELEKLAKKQVAIIEKEAKVAAADEKKFQQQILAQQKKDLTTFLESQKKQYKICKEKIKEEMNEDHSTPKKEKQERISKHKENLQHTQAEEEAHLLTQQRLYYDKNCRFFKRKIMIKRHEVEQQNIREELNKKRTQKEMEHAMLIRHDESTRELEYRQLHTLQKLRMDLIRLQHQTELENQLEYNKRRERELHRKHVMELRQQPKNLKAMEMQIKKQFQDTCKVQTKQYKALKNHQLEVTPKNEHKTILKTLKDEQTRKLAILAEQYEQSINEMMASQALRLDEAQEAECQALRLQLQQEMELLNAYQSKIKMQTEAQHERELQKLEQRVSLRRAHLEQKIEEELAALQKERSERIKNLLERQEREIETFDMESLRMGFGNLVTLDFPKEDYR [TAOK3]
solubility in G1/S (log2) (HeLa Kyoto [1]): -0.118
melting temperature (HeLa Kyoto [2]; cell cycle stage: G1/S): 50.9 °C
melting temperature (HeLa Kyoto [2]; cell cycle stage: mitosis): 50.5 °C
solubility change mitosis (log2) (HeLa Kyoto [3]): -0.0814
thermal stability score (HeLa Kyoto [4]; [5]): -0.159
thermal stability score (HeLa Kyoto [4]; cell cycle stage: mitosis): -0.329

MRKRTEPVALEHERCAAAGSSSSGSAAAALDADCRLKQNLRLTGPAAAEPRCAADAGMKRALGRRKGVWLRLRKILFCVLGLYIAIPFLIKLCPGIQAKLIFLNFVRVPYFIDLKKPQDQGLNHTCNYYLQPEEDVTIGVWHTVPAVWWKNAQGKDQMWYEDALASSHPIILYLHGNAGTRGGDHRVELYKVLSSLGYHVVTFDYRGWGDSVGTPSERGMTYDALHVFDWIKARSGDNPVYIWGHSLGTGVATNLVRRLCERETPPDALILESPFTNIREEAKSHPFSVIYRYFPGFDWFFLDPITSSGIKFANDENVKHISCPLLILHAEDDPVVPFQLGRKLYSIAAPARSFRDFKVQFVPFHSDLGYRHKYIYKSPELPRILREFLGKSEPEHQH [ABHD12]
solubility in G1/S (log2) (HeLa Kyoto [1]): 0.0996
melting temperature (HeLa Kyoto [2]; cell cycle stage: G1/S): 53 °C
melting temperature (HeLa Kyoto [2]; cell cycle stage: mitosis): 54.9 °C
solubility change mitosis (log2) (HeLa Kyoto [3]): 0.0278
thermal stability score (HeLa Kyoto [4]; [5]): 0.18
thermal stability score (HeLa Kyoto [4]; cell cycle stage: mitosis): -0.815

MRLFVSDGVPGCLPVLAAAGRARGRAEVLISTVGPEDCVVPFLTRPKVPVLQLDSGNYLFSTSAICRYFFLLSGWEQDDLTNQWLEWEATELQPALSAALYYLVVQGKKGEDVLGSVRRALTHIDHSLSRQNCPFLAGETESLADIVLWGALYPLLQDPAYLPEELSALHSWFQTLSTQEPCQRAAETVLKQQGVLALRPYLQKQPQPSPAEGRAVTNEPEEEELATLSEEEIAMAVTAWEKGLESLPPLRPQQNPVLPVAGERNVLITSALPYVNNVPHLGNIIGCVLSADVFARYSRLRQWNTLYLCGTDEYGTATETKALEEGLTPQEICDKYHIIHADIYRWFNISFDIFGRTTTPQQTKITQDIFQQLLKRGFVLQDTVEQLRCEHCARFLADRFVEGVCPFCGYEEARGDQCDKCGKLINAVELKKPQCKVCRSCPVVQSSQHLFLDLPKLEKRLEEWLGRTLPGSDWTPNAQFITRSWLRDGLKPRCITRDLKWGTPVPLEGFEDKVFYVWFDATIGYLSITANYTDQWERWWKNPEQVDLYQFMAKDNVPFHSLVFPCSALGAEDNYTLVSHLIATEYLNYEDGKFSKSRGVGVFGDMAQDTGIPADIWRFYLLYIRPEGQDSAFSWTDLLLKNNSELLNNLGNFINRAGMFVSKFFGGYVPEMVLTPDDQRLLAHVTLELQHYHQLLEKVRIRDALRSILTISRHGNQYIQVNEPWKRIKGSEADRQRAGTVTGLAVNIAALLSVMLQPYMPTVSATIQAQLQLPPPACSILLTNFLCTLPAGHQIGTVSPLFQKLENDQIESLRQRFGGGQAKTSPKPAVVETVTTAKPQQIQALMDEVTKQGNIVRELKAQKADKNEVAAEVAKLLDLKKQLAVAEGKPPEAPKGKKKK [MARS]
solubility in G1/S (log2) (HeLa Kyoto [1]): 0.171
melting temperature (HeLa Kyoto [2]; cell cycle stage: G1/S): 49.1 °C
melting temperature (HeLa Kyoto [2]; cell cycle stage: mitosis): 49.4 °C
solubility change mitosis (log2) (HeLa Kyoto [3]): -0.109
thermal stability score (HeLa Kyoto [4]; [5]): 1.07
thermal stability score (HeLa Kyoto [4]; cell cycle stage: mitosis): 4.3
